Laboratory results from article PMC9159944.

Key:
[1] = molecular target: Chimeric S. cerevisiae MCM^(Mcm3-YDF, ybbR-LD655-Mcm6) with a humanized Mcm3 subunit, loaded on origin DNA (S. cerevisiae | human) (UniProt P29469)
[2] = molecular target: S. cerevisiae recombinant MCM^ybbR-LD655-Mcm6 (MCM2–MCM7 complex), loaded on origin DNA (S. cerevisiae) (UniProt P29469)

Chain of UniProt P29469 (P29469 whole entry, looked up, change not shown, tested part not stated): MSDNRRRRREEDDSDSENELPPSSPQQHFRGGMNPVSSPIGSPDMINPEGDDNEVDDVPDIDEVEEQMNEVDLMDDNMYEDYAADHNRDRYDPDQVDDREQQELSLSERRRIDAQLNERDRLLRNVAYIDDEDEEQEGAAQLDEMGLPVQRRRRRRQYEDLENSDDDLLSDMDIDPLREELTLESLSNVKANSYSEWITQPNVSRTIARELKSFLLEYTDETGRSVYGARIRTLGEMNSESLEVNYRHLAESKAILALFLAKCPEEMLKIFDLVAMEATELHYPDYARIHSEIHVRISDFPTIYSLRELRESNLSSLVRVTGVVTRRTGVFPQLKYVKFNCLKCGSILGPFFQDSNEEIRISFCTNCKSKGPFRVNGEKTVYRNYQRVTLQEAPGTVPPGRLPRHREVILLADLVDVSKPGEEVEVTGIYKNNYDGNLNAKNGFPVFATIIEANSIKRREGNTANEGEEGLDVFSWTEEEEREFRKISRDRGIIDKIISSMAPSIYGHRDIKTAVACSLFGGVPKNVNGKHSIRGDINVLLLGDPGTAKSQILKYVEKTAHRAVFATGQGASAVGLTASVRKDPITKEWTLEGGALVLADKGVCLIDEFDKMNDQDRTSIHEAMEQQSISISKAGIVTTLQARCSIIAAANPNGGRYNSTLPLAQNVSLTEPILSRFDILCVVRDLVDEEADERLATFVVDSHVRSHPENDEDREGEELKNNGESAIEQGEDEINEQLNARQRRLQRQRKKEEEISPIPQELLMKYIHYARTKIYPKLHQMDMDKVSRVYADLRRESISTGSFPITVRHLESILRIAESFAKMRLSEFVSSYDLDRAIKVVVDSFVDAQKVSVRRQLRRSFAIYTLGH

**Q.** Which results are given for “Human recombinant cohesin^(STAG1, SCC1-Halo) (from UniProt Q14683 1-1233; Q9UQE7 1-1217; O60216 1-631; Q8WVM7 1-1258) (complex)”?
**A.** fraction of cohesin pausing of the total observation time on encountering origin-bound MCM (single-molecule cohesin translocation assay on licensed DNA, 0.15 M NaCl) [1]: 43%; fraction of cohesin pausing of the total observation time on encountering origin-bound MCM (single-molecule cohesin translocation assay on licensed DNA, 0.15 M NaCl) [2]: 6.4%
